From patent US20150158912A1 (CLEVELAND CLINIC FOUNDATION, published 2015)

How the values were obtained:
[1] = biological target: T1, V5-tagged human IL-17RA, wild type (human, UniProt Q96F46 33-866, limits assumed); assay: co-immunoprecipitation, as told back in Example 9
T1 construct: Expressed in HeLa cells and immunoprecipitated from the lysate; also called V5-tagged IL-17RA; the wild-type receptor
T1 sequence (looked up): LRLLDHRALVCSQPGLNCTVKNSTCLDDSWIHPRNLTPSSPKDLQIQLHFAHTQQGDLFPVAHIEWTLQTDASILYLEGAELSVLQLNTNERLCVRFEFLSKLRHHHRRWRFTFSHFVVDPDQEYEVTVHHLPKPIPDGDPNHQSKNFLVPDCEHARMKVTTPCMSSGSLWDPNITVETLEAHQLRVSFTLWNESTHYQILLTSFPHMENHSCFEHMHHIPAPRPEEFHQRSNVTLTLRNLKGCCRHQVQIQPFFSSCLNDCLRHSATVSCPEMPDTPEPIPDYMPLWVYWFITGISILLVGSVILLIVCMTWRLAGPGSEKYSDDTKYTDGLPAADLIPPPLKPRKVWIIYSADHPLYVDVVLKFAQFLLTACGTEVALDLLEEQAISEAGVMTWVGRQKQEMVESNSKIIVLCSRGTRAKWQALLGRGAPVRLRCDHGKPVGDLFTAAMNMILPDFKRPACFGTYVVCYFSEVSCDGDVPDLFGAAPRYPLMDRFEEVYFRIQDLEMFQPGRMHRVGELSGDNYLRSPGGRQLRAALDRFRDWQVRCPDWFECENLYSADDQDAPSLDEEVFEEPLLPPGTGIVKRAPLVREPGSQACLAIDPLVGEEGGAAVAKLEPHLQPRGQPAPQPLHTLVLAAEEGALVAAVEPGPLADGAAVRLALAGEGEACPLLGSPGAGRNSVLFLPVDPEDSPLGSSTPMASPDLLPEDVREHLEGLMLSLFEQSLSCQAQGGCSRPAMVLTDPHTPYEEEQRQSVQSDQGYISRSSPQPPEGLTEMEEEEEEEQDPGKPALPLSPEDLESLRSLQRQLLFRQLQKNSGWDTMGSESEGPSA

[2] = biological target: T2, Act1 in IL-17RB-deficient MEFs reconstituted with Myc-tagged IL-17RB (mouse (cells are mouse embryonic …, UniProt Q8N7N6 1-555)); assay: co-immunoprecipitation in reconstituted IL-17RB-deficient MEFs (IP anti-Myc)
T2 construct: That the co-precipitated Act1 is the cells' own is read from the description of the experiment
T2 sequence (looked up): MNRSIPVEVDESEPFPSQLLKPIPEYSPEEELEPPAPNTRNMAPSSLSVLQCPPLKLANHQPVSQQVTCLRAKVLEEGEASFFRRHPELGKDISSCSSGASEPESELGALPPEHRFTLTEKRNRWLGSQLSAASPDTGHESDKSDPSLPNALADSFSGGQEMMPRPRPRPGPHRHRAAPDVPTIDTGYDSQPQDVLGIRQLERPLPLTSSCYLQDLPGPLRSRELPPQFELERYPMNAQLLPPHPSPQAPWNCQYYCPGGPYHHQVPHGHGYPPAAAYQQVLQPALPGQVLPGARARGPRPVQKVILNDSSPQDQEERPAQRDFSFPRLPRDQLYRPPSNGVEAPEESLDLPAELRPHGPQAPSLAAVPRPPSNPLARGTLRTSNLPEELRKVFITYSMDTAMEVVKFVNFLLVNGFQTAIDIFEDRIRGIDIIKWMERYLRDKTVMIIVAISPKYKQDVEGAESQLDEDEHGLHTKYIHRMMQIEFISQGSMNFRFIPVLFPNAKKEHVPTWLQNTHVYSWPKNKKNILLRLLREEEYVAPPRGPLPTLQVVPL

Row | binding result [1] | binding result [2] | Binder
1 | no binding |  | FLAG-tagged mouse Act1 point mutant H472D (other, UniProt Q8N7N6 1-555, looked up) MNRSIPVEVDESEPFPSQLLKPIPEYSPEEELEPPAPNTRNMAPSSLSVLQCPPLKLANHQPVSQQVTCLRAKVLEEGEASFFRRHPELGKDISSCSSGASEPESELGALPPEHRFTLTEKRNRWLGSQLSAASPDTGHESDKSDPSLPNALADSFSGGQEMMPRPRPRPGPHRHRAAPDVPTIDTGYDSQPQDVLGIRQLERPLPLTSSCYLQDLPGPLRSRELPPQFELERYPMNAQLLPPHPSPQAPWNCQYYCPGGPYHHQVPHGHGYPPAAAYQQVLQPALPGQVLPGARARGPRPVQKVILNDSSPQDQEERPAQRDFSFPRLPRDQLYRPPSNGVEAPEESLDLPAELRPHGPQAPSLAAVPRPPSNPLARGTLRTSNLPEELRKVFITYSMDTAMEVVKFVNFLLVNGFQTAIDIFEDRIRGIDIIKWMERYLRDKTVMIIVAISPKYKQDVEGAESQLDEDEHGLDTKYIHRMMQIEFISQGSMNFRFIPVLFPNAKKEHVPTWLQNTHVYSWPKNKKNILLRLLREEEYVAPPRGPLPTLQVVPL
2 |  | no binding | Myc-tagged mouse IL-17RB point mutant L419D (receptor, UniProt Q9JIP3 18-499, looked up) REPTIQCGSETGPSPEWMVQHTLTPGDLRDLQVELVKTSVAAEEFSILMNISWILRADASIRLLKATKICVSGKNNMNSYSCVRCNYTEAFQSQTRPSGGKWTFSYVGFPVELSTLYLISAHNIPNANMNEDSPSLSVNFTSPGCLNHVMKYKKQCTEAGSLWDPDITACKKNEKMVEVNFTTNPLGNRYTILIQRDTTLGFSRVLENKLMRTSVAIPVTEESEGAVVQLTPYLHTCGNDCIRREGTVVLCSETSAPIPPDDNRRMLGGWLPLFLVLLVAVWVLAAGIYLTWRQGRSTKTSFPISTMLLPLIKVLVVYPSEICFHHTVCRFTDFLQNYCRSEVILEKWQKKKIAEMGPVQWLTTQKQAADKVVFLLPSDVPTLCDSACGHNEGSARENSQDDFPLAFNLFCSDFSSQTHLHKYLVVYLGGADLKGDYNALSVCPQYHLMKDATAFHTELLKATQSMSVKKRSQACHDSCSPL
3 |  | no binding | Myc-tagged mouse IL-17RB point mutant L422D (receptor, UniProt Q9JIP3 18-499, looked up) REPTIQCGSETGPSPEWMVQHTLTPGDLRDLQVELVKTSVAAEEFSILMNISWILRADASIRLLKATKICVSGKNNMNSYSCVRCNYTEAFQSQTRPSGGKWTFSYVGFPVELSTLYLISAHNIPNANMNEDSPSLSVNFTSPGCLNHVMKYKKQCTEAGSLWDPDITACKKNEKMVEVNFTTNPLGNRYTILIQRDTTLGFSRVLENKLMRTSVAIPVTEESEGAVVQLTPYLHTCGNDCIRREGTVVLCSETSAPIPPDDNRRMLGGWLPLFLVLLVAVWVLAAGIYLTWRQGRSTKTSFPISTMLLPLIKVLVVYPSEICFHHTVCRFTDFLQNYCRSEVILEKWQKKKIAEMGPVQWLTTQKQAADKVVFLLPSDVPTLCDSACGHNEGSARENSQDLFPDAFNLFCSDFSSQTHLHKYLVVYLGGADLKGDYNALSVCPQYHLMKDATAFHTELLKATQSMSVKKRSQACHDSCSPL
